This is an account of results in paper PMC10394066, “Polymorphic amyloid nanostructures of hormone peptides involved in glucose homeostasis display reversible amyloid formation” (Nature Communications, 2023).

The data set concerns the molecule itself. Briefly: FTIR; 6 mM peptide in water, pH adjusted from 7.2 to 4.2; amide I band 1625–1630 cm^−1; bio-ATR cell.

B1: APR^ex-4 hexapeptide LFIEWL (aggregation-prone region of exendin-4) (peptide)
peptide: LFIEWL
notes: aggregation-prone hexapeptide segment of the non-mammalian exendin-4 (also of exendin-3); free termini; also called LFIEWL (exendin-4); source: synthetic peptide (flow solid-phase synthesis, Fmoc/tBu; RP-HPLC purified)
As to B1, the binding result is on record as “binds”.
